Experimental data: article PMC7932109 (Science (New York, N.y.), 2021)

What follows are binders tested against SARS-CoV-2 spike receptor binding domain (RBD), residues 319 to 541 (SARS-CoV-2, UniProt P0DTC2, biotinylated for SPR; DyLight 488 (NHS ester) for the ACE2-RBD binding assay; no label told for ELISA and crystals) (assay: SPR). Details: both partners purified.

Binder | Kd [nM]
VHH V (VHH, also called nanobody V; source: E. coli WK6, periplasmic extract, purified (Ni-NTA, desalting or gel filtration)) VHH: QVQLVETGGGLVQPGGSLRLSCAASGFTFSSYAMGWARQVPGKGLEWVSYIYSDGSTEYQDSVKGRFTISRDNAKSTVYLQMNSLKPEDTAVYYCATEGSLGGWGRDFGSWGQGTQVTVSS | 9
VHH U (VHH, also called nanobody U; source: E. coli WK6, periplasmic extract, purified (Ni-NTA, desalting or gel filtration)) VHH: QVQLVESGGGLVQPGGSLRLSCAASGFTLDYYAIGWFRQAPGKEREGVSCISSSGGSTHFADSVKGRFTISRDNAKNTVYLQMNSLIPEDTAVYYCAAQSGSYYWCGSDWHEYEYWGQGTQVTVSS | 21
VHH W (VHH, also called nanobody W; source: E. coli WK6, periplasmic extract, purified (Ni-NTA, desalting or gel filtration)) VHH: QVQLVESGGGLVQPGGSLRLSCAASGFTLDYYAIGWFRQAPGKEREGVSCISSSGDSTHYVDSVKGRFTISRDNAKNTVYLQMNSLKPEDTAVYYCAAQSGSYYWCGSDWHEYDYRGQGTQVTVSS | 22
